Experimental data taken from patent US20130337050A1 (IMMUNOFUTURE, published 2013).

B1: GST-mTfR1 (GST-fused recombinant protein of the partial sequence 321-329 of mouse transferrin receptor 1) (other, not shown: a dimerising Fc or GST)
chain: TQFPPSQSS

Legend:
Assay in all cases: amylose resin pull-down, western blotting with anti-GST antibody
[1] = target: B1
[2] = target: MBP-VP1 GH strand I (fused recombinant protein of VP1 GH strand I and MBP) (poliovirus)
[3] = target: MBP-VP1BC loop (fused recombinant protein of VP1BC loop and MBP) (poliovirus)

| Binder | binding result [1] | binding result [2] | binding result [3] |
| --- | --- | --- | --- |
| STKDLTTY (other) [MBP-VP1C terminal region (fused recombinant protein of VP1C terminal region and MBP)] | binds |  |  |
| B1 |  | binds | binds |
| SKVPLKDQSAALGDSLYGAASLNDFGILAVRVV (other) [MBP-VP1 GH strand II (fused recombinant protein of VP1 GH strand II and MBP)] | binds |  |  |
| ALGDSLYGAASLN (other) [MBP-VP1 GH loop (fused recombinant protein of VP1 GH loop and MBP)] | binds |  |  |
